Assay results reported in patent publication US20030162943A1 (Takeda / Millennium, published 2003).
Substitutions are numbered along the chain they refer to. In names and notes the source's numbering stands.

T1: human D6 (human, UniProt O00590 1-384)
T1 construct: Full-length human D6 expressed in CHO, Hos.CD4, HEK 293, K293 or L1.2 cells; Endogenous on THP-1 cells; also called human D6 receptor; wild type human D6
T1 sequence: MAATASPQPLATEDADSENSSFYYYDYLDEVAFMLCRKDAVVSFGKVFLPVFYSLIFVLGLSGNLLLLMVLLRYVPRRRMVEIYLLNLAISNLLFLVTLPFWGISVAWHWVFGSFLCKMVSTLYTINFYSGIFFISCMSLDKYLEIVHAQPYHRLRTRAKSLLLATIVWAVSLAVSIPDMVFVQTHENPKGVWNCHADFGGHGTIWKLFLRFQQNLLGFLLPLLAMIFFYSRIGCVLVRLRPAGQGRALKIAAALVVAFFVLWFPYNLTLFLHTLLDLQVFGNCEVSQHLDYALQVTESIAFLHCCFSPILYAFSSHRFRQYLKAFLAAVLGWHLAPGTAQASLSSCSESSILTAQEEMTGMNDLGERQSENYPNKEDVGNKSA

T2: human CCR5 (human, UniProt P51681 1-352 at identity 1.00))
T2 chain: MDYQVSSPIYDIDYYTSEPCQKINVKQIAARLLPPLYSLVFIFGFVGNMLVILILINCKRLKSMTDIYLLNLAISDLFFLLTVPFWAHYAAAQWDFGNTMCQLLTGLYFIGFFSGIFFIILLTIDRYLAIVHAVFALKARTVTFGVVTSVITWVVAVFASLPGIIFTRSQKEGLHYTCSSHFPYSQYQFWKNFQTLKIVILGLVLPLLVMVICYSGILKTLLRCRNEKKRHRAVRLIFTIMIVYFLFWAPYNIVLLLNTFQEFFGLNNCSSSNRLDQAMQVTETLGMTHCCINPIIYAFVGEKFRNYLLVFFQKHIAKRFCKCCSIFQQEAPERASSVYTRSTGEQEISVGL

T3: murine D6 (murine, UniProt O08707 1-378)
T3 construct: Endogenous on B-end cells in the polyclonal antibody staining; also called murine D6 receptor; mouse D6
T3 sequence: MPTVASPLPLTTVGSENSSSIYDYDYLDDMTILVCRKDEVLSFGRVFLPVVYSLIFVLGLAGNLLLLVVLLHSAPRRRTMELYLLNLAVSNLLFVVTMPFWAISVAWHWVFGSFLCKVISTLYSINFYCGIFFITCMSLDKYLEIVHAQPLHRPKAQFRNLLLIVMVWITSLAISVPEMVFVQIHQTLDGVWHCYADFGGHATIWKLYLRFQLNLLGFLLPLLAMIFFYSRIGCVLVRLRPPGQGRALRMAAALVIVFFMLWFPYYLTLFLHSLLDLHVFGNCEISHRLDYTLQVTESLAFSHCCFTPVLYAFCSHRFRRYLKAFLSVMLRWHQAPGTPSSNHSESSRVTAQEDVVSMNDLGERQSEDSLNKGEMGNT

B1: human MIP-1α (ligand, UniProt P10147 24-92, looked up)
chain: SLAADTPTACCFSYTSRQIPQNFIADYFETSSQCSKPGVIFLTKRSRQVCADPSEEWVQKYVSDLELSA
notes: also called hMIP-1α
B2: murine JE (ligand)
chain: not shown
notes: They are treated here as one protein (JE is the murine MCP-1); also called murine MCP-1
B3: human Eotaxin (ligand)
chain: not shown
B4: human RANTES (ligand, UniProt P13501 24-91, looked up)
chain: SPYSSDTTPCCFAYIARPLPRAHIKEYFYTSGKCSNPAVVFVTRKNRQVCANPEKKWVREYINSLEMS
notes: also called hRANTES; HRANTES
B5: murine MIP-1β (ligand, UniProt P14097 24-92, looked up)
chain: APMGSDPPTSCCFSYTSRQLHRSFVMDYYETSSLCSKPAVVFLTKRGRQICANPSEPWVTEYMSDLELN
notes: also called mMIP-1β; murine M1β
B6: human MCP-4 (ligand)
chain: not shown
B7: KC (ligand, UniProt P12850 25-96, looked up)
chain: APIANELRCQCLQTMAGIHLKNIQSLKVLPSGPHCTQTEVIATLKNGREACLDPEAPLVQKIVQKMLKGVPK
B8: human MCP-3 (ligand)
chain: not shown
notes: also called hMCP-3
B9: human D6 mutant K142R, E145A (receptor)
chain: T1 sequence with K142R, E145A
notes: Expressed in HEK 293 cells; also called K142R,E145A mutant
B10: human D6 triple mutant N92D, K142R, E145A (receptor)
chain: T1 sequence with N92D, K142R, E145A
notes: Expressed in HEK 293 cells
B11: human MIP-1β (ligand, UniProt P13236 24-92, looked up)
chain: APMGSDPPTACCFSYTARKLPRNFVVDYYETSSLCSQPAVVFQTKRSKQVCADPSESWVQEYVYDLELN
B12: murine Eotaxin (ligand, UniProt P48298 24-97, looked up)
chain: HPGSIPTSCCFIMTSKKIPNTLLKSYKRITNNRCTLKAIVFKTRLGKEICADPKKKWVQDATKHLDQKLQTPKP
B13: murine MCP-5 (ligand, UniProt Q62401 23-104, looked up)
chain: GPDAVSTPVTCCYNVVKQKIHVRKLKSYRRITSSQCPREAVIFRTILDKEICADPKEKWVKNSINHLDKTSQTFILEPSCLG
notes: also called mMCP-5
B14: human HCC1 (ligand, UniProt Q16627 20-93, looked up)
chain: TKTESSSRGPYHPSECCFTYTTYKIPRQRIMDYYETNSQCSKPGIVFITKRGHSVCTNPSDKWVQDYIKDMKEN
B15: human MCP-2 (ligand, UniProt P80075 24-99, looked up)
chain: QPDSVSIPITCCFNVINRKIPIQRLESYTRITNIQCPKEAVIFKTKRGKEVCADPKERWVRDSMKHLDQIFQNLKP
notes: also called hMCP-2
B16: murine MIP-1α (ligand, UniProt P10855 24-92, looked up)
chain: APYGADTPTACCFSYSRKIPRQFIVDYFETSSLCSQPGVIFLTKRNRQICADSKETWVQEYITDLELNA
modifications: also: radioiodinated (125I) when used as tracer
notes: also called mMIP-1α

How the values were obtained:
human D6 = target: T1, human D6; test: displacement of 125I-murine MIP-1α by unlabeled chemokine on cells expressing human D6; LIGAND analysis
Description: (§1) Stably transfected CHO cells were plated at 10^5 cells/well in 24-well plates and incubated overnight at 37° C. After washing with warm PBS, the cells were incubated in 250 μl of binding buffer (special liquid medium plus 10% fetal calf serum, 4 mM glutamine, 0.2% sodium azide, 25 mM HEPES (pH 7.4)) containing variable concentrations of radioiodinated MIP-1 and cold competitor chemokine. Binding proceeded for 90 minutes at 22° C., then each well washed three times in ice-cold PBS and the cell monolayer was then solubilized by the addition of 0.5 ml of 1% SDS. Lysed cells were transferred to a counting vial and bound radioactivity counted for 1 minute in Beckman Gamma 5500B counter. Each data point was assayed in triplicate and each experiment performed at least twice of accuracy. Data was analyzed using Scahot and Scafit programs in LIGAND software (Munson et al. (1980) Anal. Biochem. 107:220-239).
The receptor binding assays were carried out as described above for the displacement analysis of murine D6 with cells being plated at 2×10⁵ cells/well in 24-well plates and incubated overnight at 37° C. prior to binding analysis.

human CCR5 = target: T2, human CCR5; test: cell-based or functional assay
murine D6 [1] = target: T3, murine D6; test: competition with 125I-murine MIP-1α on CHO cells stably expressing murine D6; LIGAND analysis
Description: as §1

[2] = target: B9; test: cell-based or functional assay
murine D6 [3] = target: T3, murine D6; test: displacement of radiolabeled murine MIP-1α from murine D6 on transfected cells
Description: as §1

murine MIP-1α = target: B16; test: radioligand binding on transfected cells
[4] = target: B10; test: cell-based or functional assay
murine D6 [5] = target: T3, murine D6; test: binding assays on CHO cells expressing murine D6
Description: as §1

| Kd (human D6) [nM] | Kd (murine D6 [1]) [nM] | Binder | also measured |
| --- | --- | --- | --- |
| 64 |  | B1 | [Ca++] (human CCR5): 412 nmol/L |
| 613 | 1.5 | B2 |  |
| 46 |  | B3 |  |
| 3.6 | 2 | B4 | [Ca++] [2]: 19.3 nmol/L |
| 0.755 | 0.77 | B5 |  |
| 5.9 |  | B6 |  |
|  |  | B7 | binding result (murine D6 [3]): no binding |
| 1.2 | 5 | B8 |  |
|  |  | B9 | binding result (murine MIP-1α): binds |
|  |  | B10 | binding result (murine MIP-1α): binds |
| 1.7 | 0.26 | B11 |  |
| 30 |  | B12 |  |
| 6.3 |  | B13 |  |
| 27.2 |  | B14 |  |
| 768 |  | B15 | [Ca++] [2]: 22.9 nmol/L; [Ca++] [4]: 13.7 nmol/L |
| 0.92 |  | B16 | [Ca++] [2]: 28.2 nmol/L; [Ca++] [4]: 11.3 nmol/L; binding result (murine D6 [5]): binds |
